Measurements from PMC12207588.

Tested on: P02768
Test: SEC; BioSep SEC-s2000 column, PBS pH 7.4, 1 mL/min; share of monomer, dimer and trimer from the UV trace at 280 nm

Substance	percent HSA dimer (SEC UV trace at 280 nm)	percent HSA trimer (SEC UV trace at 280 nm)	percent dimer and trimer together (SEC UV trace at 280 nm)
Human serum albumin, pharmaceutical solution Albunorm (HSA1)	1.1% (7.1 min)	2.9% (5.6 min)	–
DFO*malHSA (HSA1 conjugated with DFO*maleimide at Cys34)	–	–	the other 5% of the UV trace corresponds to the albumin dimer and trimer
Recombinant human serum albumin, lyophilized, A9731 (HSA4)	10.2% (7.2 min)	–	–
Human serum albumin, lyophilized powder from human serum, A1693 (HSA2)	10.7% (6.7 min)	–	–
Human serum albumin, lyophilized powder from human serum, A3782 (HSA3)	3.4% (7.3 min)	–	–
